In patent publication US5118793A, “Modified heparin cofactor II” (Washington University, priority 1991, dated 1992):
Changes are numbered by the printed parent chain.

B1: native rHCII: recombinant full-length heparin cofactor II expressed in E. coli; amino acid sequence identical to HCII purified from human plasma (protein, UniProt P05546 20-499, looked up)
Heparin cofactor 2: GSKGPLDQLEKGGETAQSADPQWEQLNNKNLSMPLLPADFHKENTVTNDWIPEGEEDDDYLDLEKIFSEDDDYIDIVDSLSVSPTDSDVSAGNILQLFHGKSRIQRLNILNAKFAFNLYRVLKDQVNTFDNIFIAPVGISTAMGMISLGLKGETHEQVHSILHFKDFVNASSKYEITTIHNLFRKLTHRLFRRNFGYTLRSVNDLYIQKQFPILLDFKTKVREYYFAEAQIADFSDPAFISKTNNHIMKLTKGLIKDALENIDPATQMMILNCIYFKGSWVNKFPVEMTHNHNFRLNEREVVKVSMMQTKGNFLAANDQELDCDILQLEYVGGISMLIVVPHKMSGMKTLEAQLTPRVVERWQKSMTNRTREVLLPKFKLEKNYNLVESLKLMGIRMLFDKNGNMAGISDQRIAIDLFKHQGTITVNEEGTQATTVTTVGFMPLSTQVRFTVDRPFLFLIYEHRTSCLLFMGRVANPSRS
modifications: recombinant, E. coli
B2: HCII: heparin cofactor II, a 65,600 dalton plasma glycoprotein, serpin that inhibits thrombin (protein, UniProt P05546 20-499, looked up)
Heparin cofactor 2: B1 Heparin cofactor 2
B3: rHCII(Leu444 →Arg): heparin cofactor II in which the leucine residue at position 444 is replaced by arginine; recombinant, expressed in E. coli (protein, UniProt P05546 20-499, looked up, variant L444R)
Heparin cofactor 2: B1 Heparin cofactor 2 with L444R
modifications: recombinant, E. coli-expressed
notes: heparin cofactor II in which the leucine residue at position 444 is replaced by arginine; recombinant, expressed in E. coli

Experiments:
chymotrypsin = assay: Inhibition of chymotrypsin by rHCII, chromogenic substrate assay; type: biochemical, human
Procedure: Inhibition of proteases by rHCII--Protease inhibition by rHCII was determined by incubating 90 μl of the partially purified rHCII (or the corresponding heparin-Sepharose fractions of a control lysate from cells transformed with pMON-5840) with 5 μl of the protease and 5 μl of either glycosaminoglycan or water in a disposable polystyrene cuvette at room temperature. Final concentrations of the proteases were as follows: thrombin, 15 nM; chymotrypsin, 21 nM; factor Xa, 16 nM; and kallikrein, 10 nM. After a specified period of time from 5 seconds (s) to 150 min, 300-500 μl of the appropriate chromogenic substrate was added, and the absorbance at 405 nm was recorded continuously for 100 s. The rate of change of absorbance was proportional to the concentration of active protease remaining in the incubation. […]
Protease inhibition by rHCII in the absence of a glycosaminoglycan--The time courses of inhibition of thrombin, factor Xa, kallikrein, and chymotrypsin by native rHCII(Leu444 →Arg) in the absence of a glycosaminoglycan are indicated in FIG. 3. […] The pseudo-first-order rate constants (k1) for protease inhibition were determined by fitting the data to the following equation: k1 t=1n([P]0 /[P]t), in which [P]0 =initial prolease activity and [P]t =protease activity at time=t. The second-order rate constants (k2) were then calculated by dividing k by the initial rHCII concentration. […]

thrombin [1] = assay: Inhibition of thrombin by rHCII, chromogenic substrate Chromozym TH, second-order rate constants; type: biochemical, human; conditions: for Increase in the rate constant for thrombin inhibition produced by dermatan sulfate: dermatan sulfate versus no GAG; for Increase in the rate constant for thrombin inhibition produced by heparin: heparin versus no GAG
Procedure: Inhibition of proteases by rHCII--Protease inhibition by rHCII was determined by incubating 90 μl of the partially purified rHCII (or the corresponding heparin-Sepharose fractions of a control lysate from cells transformed with pMON-5840) with 5 μl of the protease and 5 μl of either glycosaminoglycan or water in a disposable polystyrene cuvette at room temperature. Final concentrations of the proteases were as follows: thrombin, 15 nM; chymotrypsin, 21 nM; factor Xa, 16 nM; and kallikrein, 10 nM. After a specified period of time from 5 seconds (s) to 150 min, 300-500 μl of the appropriate chromogenic substrate was added, and the absorbance at 405 nm was recorded continuously for 100 s. The rate of change of absorbance was proportional to the concentration of active protease remaining in the incubation. The amounts added and concentrations of each substrate were as follows: Chromozym TH (thrombin), 500 μl, 0.1 mM; N-succinyl-Ala-Ala-Pro-Phe-p-nitroanilde (chymotrypsin), 300 μl, 0.5 mM; Spectrozyme FXa (factor Xa), 400 μl, 0.125 mM; and S-2302 (kallikrein), 300 μl, 0.4 mM.
Protease inhibition by rHCII in the absence of a glycosaminoglycan--The time courses of inhibition of thrombin, factor Xa, kallikrein, and chymotrypsin by native rHCII(Leu444 →Arg) in the absence of a glycosaminoglycan are indicated in FIG. 3. The incubations were performed under pseudo-first-order conditions, such that the initial concentration of rHCII was greater than the concentration of protease. The pseudo-first-order rate constants (k1) for protease inhibition were determined by fitting the data to the following equation: k1 t=1n([P]0 /[P]t), in which [P]0 =initial prolease activity and [P]t =protease activity at time=t. The second-order rate constants (k2) were then calculated by dividing k by the initial rHCII concentration. It was observed that rHCII(Leu444 →Arg) inhibits thrombin almost 100 times more rapidly than native rHCII in the absence of a glycosaminoglycan Furthermore, rHCII(Leu444 →Arg) inhibits factor Xa and kallikrein, while inhibition of these proteases by native rHCII is undetectable.
Inhibition of thrombin by rHCII in the presence dermatan sulfate or heparin--The time course of inhibition of thrombin was determined in the presence of various concentrations of dermatan sulfate or heparin.

thrombin [2] = conditions: cited from earlier work

| Molecule | Effect of dermatan sulfate on the rate of inhibition of chymotrypsin (chymotrypsin) | Increase in the rate constant for thrombin inhibition produced by dermatan sulfate (thrombin [1]) | Increase in the rate constant for thrombin inhibition produced by heparin (thrombin [1]) | Increase of the rate of thrombin inhibition by heparin and dermatan sulfate (thrombin [2]) |
| --- | --- | --- | --- | --- |
| B1 | does not significantly increase | ~3500 fold | about 40 fold |  |
| B2 |  |  |  | ~ 1000 fold |
| B3 |  | much smaller effect | minimal effect |  |
